From the supplement of paper PMC9732359
± gives the uncertainty stated by the source.

Experiment: protein stability index of a GFP-peptide fusion (yeast GPS) (PSI 1-4); higher = more stable; sorted into four equal gates, so the index is relative within each strain
Method in brief: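 The protein stability index of a peptide was calculated by multiplying its read frequency in each gate by that gate's number and adding the products. The peptides were tiled 17-residue stretches of yeast proteins, fused downstream of GFP on a Cherry-expressing plasmid and carried in yeast as a pooled library. Mid-log cultures in leucine-free medium were sorted into four equal gates by GFP/Cherry ratio, and each gate's plasmids were PCR-amplified and Illumina-sequenced.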

Row | Sequence | protein stability index (doa10∆) | protein stability index (pdr5∆) | protein stability index (san1∆) | protein stability index (ubr1∆)
1 | KAKNPLTHSTPKNFGIG [RPL8B] | 3.31 ± 0.13 | 3.35 ± 0.12 | 3.14 ± 0.074 | 3.08 ± 0.05
2 | SLLEKDIDAVNGAVGKR [ISW2] | 2.92 ± 0.09 | 3.24 ± 0.081 | 2.9 ± 0.098 | 3.31 ± 0.064
3 | KCKTRAQLTLKRCKHFE [RPL42A] | 2.65 ± 0.088 | 2.58 ± 0.085 | 2.85 ± 0.064 | 2.68 ± 0.061
4 | RQGLIHQGSGGSVMSAS [SMC3] | 2.75 ± 0.091 | 3.14 ± 0.062 | 2.53 ± 0.086 | 2.69 ± 0.067
5 | IERLTKRQFNNSYWLII [ITC1] | 3.01 ± 0.077 | 2.62 ± 0.099 | 2.16 ± 0.097 | 2.13 ± 0.071
6 | KKRRGSRIYKTIKVAGT [SNU114] | 1.6 ± 0.042 | 1.78 ± 0.045 | 1.61 ± 0.069 | 1.8 ± 0.043
7 | SADREIQRTLMELLTQM [RPT4] | 2.93 ± 0.12 | 3.16 ± 0.1 | 3.27 ± 0.087 | 3.02 ± 0.095
8 | ETERLISQSQLGKFKNI [SIN4] | 3.09 ± 0.13 | – | – | –
9 | HRSKKDQDQYLEIAKDF [IRR1] | 3.15 ± 0.14 | 3.21 ± 0.12 | 3.04 ± 0.13 | 3.6 ± 0.27
10 | GMTPCTVSPDFVAATTN [FAS1] | 1.83 ± 0.076 | 1.98 ± 0.054 | 1.86 ± 0.12 | 1.99 ± 0.07
11 | SNNITSGLNRAISTGNW [RET1] | 3.13 ± 0.11 | 3.37 ± 0.11 | 3.25 ± 0.061 | 3 ± 0.079
12 | KRSGVIETVDDKLKDIV [ITC1] | 3.15 ± 0.29 | 3 ± 0.3 | – | –
13 | SYVVPRLYLKDQTNHIE [ECM29] | 2.62 ± 0.076 | 1.83 ± 0.046 | 2.83 ± 0.056 | 2.15 ± 0.033
14 | MGRVIRNQRKGAGSIFT [RPL2A] | 2.95 ± 0.2 | 3.28 ± 0.12 | 2.77 ± 0.25 | 2.75 ± 0.15
15 | LDQLLVLEKKTRQASDL [RPN5] | 3.19 ± 0.12 | 2.95 ± 0.1 | 3.1 ± 0.07 | 2.71 ± 0.097
16 | TPANNGENAAEKPDNSN [SNF2] | 1.89 ± 0.075 | 2.24 ± 0.098 | 1.81 ± 0.1 | 2.71 ± 0.068
17 | ANLRVLNSYWVNQDSTY [RPL15A] | 2.62 ± 0.072 | 2.23 ± 0.067 | 2.78 ± 0.058 | 2.37 ± 0.064
18 | GILGNKAQAKMDKRAKN [RPL8A] | 3.59 ± 0.12 | 3.51 ± 0.14 | 3.41 ± 0.057 | 3.63 ± 0.076
19 | TSMNGVHNTVAAGNASS [SNF5] | 2.73 ± 0.043 | 2.74 ± 0.037 | 2.76 ± 0.05 | 2.76 ± 0.051
20 | TAQKYPIYTGDGWVKLT [YMR153W/NUP53] | 1.63 ± 0.062 | 1.77 ± 0.06 | 1.62 ± 0.1 | 1.21 ± 0.041
21 | IASTLGPSAMRLSRCIR [RPC82] | 1.84 ± 0.089 | 2.46 ± 0.08 | 1.81 ± 0.083 | 2.4 ± 0.055
22 | KPLGPCDVFWVQKDTAI [POP1] | 2.85 ± 0.07 | 3.03 ± 0.069 | 2.89 ± 0.06 | 2.96 ± 0.054
23 | ATDVEARAVQDNGESAF [RPL13A] | 3.16 ± 0.11 | 2.99 ± 0.088 | 1.56 ± 0.094 | 2.85 ± 0.094
24 | EKLDVSRSSVCVKAIEA [YCG1] | 2.54 ± 0.065 | 2.16 ± 0.058 | 2.08 ± 0.079 | 2.11 ± 0.058
25 | DPNLSFESSSSLPFLLR [SSN2] | 3.07 ± 0.16 | 3.19 ± 0.13 | 2.94 ± 0.1 | 2.82 ± 0.13
26 | NGTTVWGTLQSVSPQMN [SMD1] | 3.57 ± 0.25 | 3.01 ± 0.24 | 3.39 ± 0.19 | 2.96 ± 0.18
27 | FSQTVADNNDLQESINH [ECM29] | 3.03 ± 0.055 | 3.08 ± 0.049 | 3.02 ± 0.047 | 3.1 ± 0.048

Row | Sequence | protein stability index (doa10∆) | protein stability index (pdr5∆) | protein stability index (san1∆) | protein stability index (ubr1∆)
28 | GSSSIIYYDSYIHLAYS [SSN2] | 2.56 ± 0.11 | 2.61 ± 0.12 | 2.7 ± 0.068 | 2.79 ± 0.28
29 | KFSSRHGQKGVCGIIVK [RET1] | 3.56 ± 0.095 | 3.51 ± 0.092 | 3.71 ± 0.051 | 3.14 ± 0.12
30 | WQYYYYTLTEEGVEYLR [RPS10A] | 2.58 ± 0.084 | 2.66 ± 0.072 | 2.74 ± 0.098 | 3.21 ± 0.1
31 | ELGVSIYDFPGTPEATK [NUT2] | 2.92 ± 0.076 | 3.06 ± 0.098 | 3.06 ± 0.078 | 3.04 ± 0.048
32 | SLEQRTLNPDLFLYKEL [RPC82] | 3.28 ± 0.28 | 3.13 ± 0.19 | 3.21 ± 0.092 | 3.74 ± 0.27
33 | SEVGDAFIFGLQDELKE [SMC3] | 3.2 ± 0.067 | 3.31 ± 0.061 | 3.1 ± 0.057 | 3.25 ± 0.072
34 | GINKNEEYRKQLDKKNE [SMC1] | 3.22 ± 0.12 | 2.62 ± 0.069 | 2.3 ± 0.082 | 2.58 ± 0.045
35 | MDLLKFSSLAISEINFL [CSI1] | 2.1 ± 0.045 | 2.49 ± 0.037 | 2.16 ± 0.053 | 2.35 ± 0.047
36 | LEGNDIHALAAKLLQEN [FAS1] | 2.76 ± 0.063 | 2.95 ± 0.065 | 2.77 ± 0.051 | 2.7 ± 0.059
37 | SQHGQGNNPSWVNNPKK [YDL088C/ASM4] | 3.2 ± 0.14 | 3.52 ± 0.16 | – | –
38 | GLNAKQLYKARMSIKLL [POP1] | 2.13 ± 0.082 | 1.73 ± 0.08 | 2.41 ± 0.06 | 2.37 ± 0.029
39 | TLLIAIRGSNRDLKPSN [YML103C/NUP188] | 1.92 ± 0.18 | 2.41 ± 0.13 | 2.52 ± 0.098 | 2.8 ± 0.087
40 | LSGLSADKPFTRLTAYQ [YML031W/NDC1] | 2.95 ± 0.058 | 3.14 ± 0.06 | 2.95 ± 0.058 | 2.97 ± 0.063
41 | SDLINKDLVKNNVSFNA [FAS1] | 2.61 ± 0.068 | 2.58 ± 0.074 | 1.62 ± 0.11 | 2.26 ± 0.053
42 | DKKQQTIDEQSQISPEK [RPN1] | 3.29 ± 0.11 | 3.46 ± 0.11 | 3.4 ± 0.063 | 3.26 ± 0.046
43 | ASIGQAAEQQSKAFKES [SRP54] | 3.45 ± 0.19 | 3.33 ± 0.17 | 3.14 ± 0.096 | 3.16 ± 0.082
44 | GLLKRGDTVRILDTSQS [SNU114] | 3.08 ± 0.084 | 3.21 ± 0.1 | 3.15 ± 0.054 | 2.86 ± 0.1
45 | QEWLANLKLISVSLVDE [SIR4] | 2.77 ± 0.057 | 1.87 ± 0.047 | 2.46 ± 0.056 | 1.67 ± 0.039
46 | IHSGVLSSIESDLKKRE [YMR153W/NUP53] | 3.07 ± 0.084 | 3.17 ± 0.073 | 3.1 ± 0.066 | 3.09 ± 0.074
47 | DDLEKTLDKKDSIPLRI [RPN9] | – | 2.3 ± 0.14 | 2.94 ± 0.11 | 2.33 ± 0.11
48 | KTYNKLHYCVSCAIHAR [RPS26A] | 1.21 ± 0.055 | 1.33 ± 0.087 | 1.31 ± 0.14 | 1.2 ± 0.12
49 | DLETSLSQSSSYLETLT [MED2] | 2.94 ± 0.075 | 3.12 ± 0.11 | 2.7 ± 0.077 | 2.96 ± 0.099
50 | RDMIMKRNSDKVEYKIV [ITC1] | 1.78 ± 0.078 | 1.83 ± 0.078 | 1.85 ± 0.12 | 1.31 ± 0.047
51 | TPAPKISYKKGAASNRT [RPL36A] | 2.98 ± 0.072 | 3.22 ± 0.06 | 3.17 ± 0.058 | 3.1 ± 0.042
52 | ISKTTLTLDPRYIWRSL [RPN3] | 2.75 ± 0.1 | 2.61 ± 0.082 | 2.5 ± 0.085 | 2.6 ± 0.15
53 | NPASATDNMSGRGLWNP [YJL039C/NUP192] | 2.71 ± 0.079 | 3.1 ± 0.082 | 2.8 ± 0.076 | 3.16 ± 0.075
54 | VFGISKTSSGSYNYVEN [ITC1] | 3.33 ± 0.083 | 3.12 ± 0.073 | 3.17 ± 0.06 | 3.28 ± 0.041
